According to publication PMC10397247:
Blank lines part the entries; values can stand above or below the binder they belong to.

What was measured:
Experiment in all cases: two-hybrid library CCNG1;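 further: natural log of median RNA to DNA barcode read ratio; higher means stronger binding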
[1] = biological target: T1, 4H3817-bH
T1 chain: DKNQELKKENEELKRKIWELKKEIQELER

[2] = biological target: T2, 4H3638-bH
T2 chain: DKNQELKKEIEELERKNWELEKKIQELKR

[3] = biological target: T3, 4H906-bH
T3 chain: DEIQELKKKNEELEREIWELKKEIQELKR

[4] = biological target: T4, 4H3631-bH
T4 chain: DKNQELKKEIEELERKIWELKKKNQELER

[5] = biological target: T5, 4H3172-bH
T5 chain: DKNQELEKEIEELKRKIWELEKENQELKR

[6] = biological target: T6, 4H3129-bH
T6 chain: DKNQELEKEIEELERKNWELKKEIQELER

[7] = biological target: T7, 4H570-bH
T7 chain: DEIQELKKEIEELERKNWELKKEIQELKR

[8] = biological target: T8, 4H3414-bH
T8 chain: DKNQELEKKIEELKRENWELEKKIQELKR

[9] = biological target: T9, 4H1804-bH
T9 chain: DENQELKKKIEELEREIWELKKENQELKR

[10] = biological target: T10, 4H3974-bH
T10 chain: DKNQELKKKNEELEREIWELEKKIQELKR

[11] = biological target: T11, 4H850-bH
T11 chain: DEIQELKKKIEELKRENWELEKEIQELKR

[12] = biological target: T12, 4H619-bH
T12 chain: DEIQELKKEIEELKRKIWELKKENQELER

[13] = biological target: T13, 4H584-bH
T13 chain: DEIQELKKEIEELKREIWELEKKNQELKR

[14] = biological target: T14, 4H1985-bH
T14 chain: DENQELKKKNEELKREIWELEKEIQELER

[15] = biological target: T15, 4H953-bH
T15 chain: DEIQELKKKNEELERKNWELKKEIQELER

[16] = biological target: T16, 4H338-bH
T16 chain: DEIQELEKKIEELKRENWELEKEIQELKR

[17] = biological target: T17, 4H687-bH
T17 chain: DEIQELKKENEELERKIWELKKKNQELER

[18] = biological target: T18, 4H2667-bH
T18 chain: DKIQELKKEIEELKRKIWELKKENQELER

[19] = biological target: T19, 4H3112-bH
T19 chain: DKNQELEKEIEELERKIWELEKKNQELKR

[20] = biological target: T20, 4H3354-bH
T20 chain: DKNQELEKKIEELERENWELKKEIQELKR

[21] = biological target: T21, 4H331-bH
T21 chain: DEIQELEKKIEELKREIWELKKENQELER

[22] = biological target: T22, 4H72-bH
T22 chain: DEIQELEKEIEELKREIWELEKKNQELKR

[23] = biological target: T23, 4H3427-bH
T23 chain: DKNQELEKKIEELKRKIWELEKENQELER

[24] = biological target: T24, 4H607-bH
T24 chain: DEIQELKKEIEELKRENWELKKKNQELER

[25] = biological target: T25, 4H717-bH
T25 chain: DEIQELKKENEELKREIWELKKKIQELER

[26] = biological target: T26, 4H967-bH
T26 chain: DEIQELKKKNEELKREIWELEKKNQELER

[27] = biological target: T27, 4H2729-bH
T27 chain: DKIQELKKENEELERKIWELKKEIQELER

[28] = biological target: T28, 4H797-bH
T28 chain: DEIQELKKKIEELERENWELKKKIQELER

[29] = biological target: T29, 4H3855-bH
T29 chain: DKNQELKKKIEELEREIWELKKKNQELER

[30] = biological target: T30, 4H3782-bH
T30 chain: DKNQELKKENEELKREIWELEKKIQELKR

[31] = biological target: T31, 4H754-bH
T31 chain: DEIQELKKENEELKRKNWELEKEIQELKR

[32] = biological target: T32, 4H48-bN
T32 chain: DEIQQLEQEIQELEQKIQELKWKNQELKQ

[33] = biological target: T33, 4H568-bH
T33 chain: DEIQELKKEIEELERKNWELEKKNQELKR

[34] = biological target: T34, 4H908-bH
T34 chain: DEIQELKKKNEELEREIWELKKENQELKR

[35] = biological target: T35, 4H4001-bH
T35 chain: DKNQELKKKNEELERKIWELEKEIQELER

[36] = biological target: T36, 4H883-bH
T36 chain: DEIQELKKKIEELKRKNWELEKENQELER

[37] = biological target: T37, 4H2618-bH
T37 chain: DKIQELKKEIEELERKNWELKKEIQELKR

[38] = biological target: T38, 4H454-bH
T38 chain: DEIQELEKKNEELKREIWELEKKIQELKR

[39] = biological target: T39, 4H3185-bH
T39 chain: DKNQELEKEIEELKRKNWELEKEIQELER

[40] = biological target: T40, 4H918-bH
T40 chain: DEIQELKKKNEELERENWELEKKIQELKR

[41] = biological target: T41, 4H496-bH
T41 chain: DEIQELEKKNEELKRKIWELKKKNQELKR

[42] = biological target: T42, 4H3298-bH
T42 chain: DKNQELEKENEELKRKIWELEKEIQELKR

[43] = biological target: T43, 4H3462-bH
T43 chain: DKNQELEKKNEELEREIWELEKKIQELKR

[44] = biological target: T44, 4H591-bH
T44 chain: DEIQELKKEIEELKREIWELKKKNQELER

[45] = biological target: T45, 4H3162-bH
T45 chain: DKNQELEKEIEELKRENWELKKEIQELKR

[46] = biological target: T46, 4H3858-bH
T46 chain: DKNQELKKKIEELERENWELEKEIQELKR

[47] = biological target: T47, 4H3628-bH
T47 chain: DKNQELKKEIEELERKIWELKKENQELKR

[48] = biological target: T48, 4H1710-bH
T48 chain: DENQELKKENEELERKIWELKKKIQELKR

[49] = biological target: T49, 4H3926-bH
T49 chain: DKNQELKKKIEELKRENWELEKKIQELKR

[50] = biological target: T50, 4H1899-bH
T50 chain: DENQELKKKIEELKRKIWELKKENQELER

[51] = biological target: T51, 4H3497-bH
T51 chain: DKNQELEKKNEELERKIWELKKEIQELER

[52] = biological target: T52, 4H3381-bH
T52 chain: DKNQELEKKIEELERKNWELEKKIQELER

[53] = biological target: T53, 4H3613-bH
T53 chain: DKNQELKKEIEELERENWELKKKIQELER

[54] = biological target: T54, 4H3277-bH
T54 chain: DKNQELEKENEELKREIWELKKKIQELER

[55] = biological target: T55, 4H626-bH
T55 chain: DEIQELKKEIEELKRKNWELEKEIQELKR

[56] = biological target: T56, 4H3175-bH
T56 chain: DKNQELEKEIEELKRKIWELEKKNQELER

[57] = biological target: T57, 4H48-bA
T57 chain: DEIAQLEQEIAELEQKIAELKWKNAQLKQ

[58] = biological target: T58, 4H491-bA
T58 chain: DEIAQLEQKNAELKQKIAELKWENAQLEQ

[59] = biological target: T59, 4H462-bH
T59 chain: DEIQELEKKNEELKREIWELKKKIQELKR

[60] = biological target: T60, 4H932-bH
T60 chain: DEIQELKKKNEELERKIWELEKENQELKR

[61] = biological target: T61, P4A-bP
T61 chain: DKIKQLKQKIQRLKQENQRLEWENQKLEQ

[62] = biological target: T62, P9A-bP
T62 chain: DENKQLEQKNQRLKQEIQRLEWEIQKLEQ

[63] = biological target: T63, P8A-bP
T63 chain: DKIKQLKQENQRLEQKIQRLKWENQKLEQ

[64] = biological target: T64, P6A-bP
T64 chain: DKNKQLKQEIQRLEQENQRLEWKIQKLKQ

[65] = biological target: T65, P7A-bP
T65 chain: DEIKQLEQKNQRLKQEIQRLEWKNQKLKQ

[66] = biological target: T66, P5A-bP
T66 chain: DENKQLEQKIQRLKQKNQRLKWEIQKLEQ

interaction score [1]: -0.0504
interaction score [2]: -0.512
interaction score [3]: -0.842
interaction score [4]: -0.276
interaction score [5]: -0.154
interaction score [6]: -0.437
interaction score [7]: -0.192
interaction score [8]: -0.0322
interaction score [9]: 0.525
interaction score [10]: -0.359
interaction score [11]: -0.238
interaction score [12]: -0.693
interaction score [13]: 0.198
interaction score [14]: 0.0377
Binder: DENQELKKKIEELEREIWELKKENQELKR [4H1804-bH]

interaction score [15]: 0.869
interaction score [16]: 1.42
interaction score [17]: 0.466
interaction score [18]: 0.678
interaction score [19]: -0.148
interaction score [20]: 0.422
interaction score [21]: 1.85
interaction score [22]: -0.76
interaction score [23]: 1.07
interaction score [24]: -1.63
interaction score [25]: -0.283
interaction score [26]: -0.781
interaction score [27]: 2
interaction score [28]: 0.872
interaction score [29]: -0.442
interaction score [30]: -0.244
interaction score [31]: -0.696
interaction score [32]: 1.54
interaction score [33]: -0.291
interaction score [34]: -1.01
interaction score [35]: 0.338
interaction score [36]: 0.271
interaction score [37]: 1.05
interaction score [38]: 1.16
interaction score [39]: 1.08
interaction score [40]: 0.911
Binder: DKIQELKKEIEELERKNWELKKEIQELKR [4H2618-bH]

interaction score [15]: -1.36
interaction score [17]: -0.869
interaction score [59]: -0.256
interaction score [60]: 0.0317
interaction score [22]: -2.05
interaction score [24]: -2.7
interaction score [25]: -0.479
interaction score [26]: -2.28
interaction score [28]: -0.61
interaction score [31]: -0.348
interaction score [61]: 0.398
interaction score [33]: -0.215
interaction score [34]: -0.558
interaction score [35]: -0.117
interaction score [36]: -1.67
interaction score [38]: 1.29
interaction score [40]: -2.1
Binder: DKNQELKKKNEELERKIWELEKEIQELER [4H4001-bH]

The remaining lines, values behind:

Binder: DEIQELEKKNEELKRKIWELKKKNQELKR [4H496-bH]
interaction score [41]: -0.197

Binder: DENQELKKENEELERKIWELKKKIQELKR [4H1710-bH]
interaction score [42]: -0.00934
interaction score [1]: 0.823
interaction score [2]: -0.567
interaction score [3]: -0.745
interaction score [43]: 0.869
interaction score [44]: -1.94
interaction score [45]: -0.655
interaction score [46]: -0.238
interaction score [4]: 0.643
interaction score [5]: 0.358
interaction score [47]: 1.35
interaction score [6]: 0.0138
interaction score [48]: 0.661
interaction score [7]: -0.481
interaction score [49]: 0.806
interaction score [50]: 0.26
interaction score [51]: 0.794
interaction score [8]: -0.234
interaction score [52]: -1.3
interaction score [53]: -0.955
interaction score [9]: -0.929
interaction score [10]: 0.887
interaction score [11]: 0.221
interaction score [54]: 0.846
interaction score [12]: 0.404
interaction score [55]: 0.853
interaction score [13]: 0.848
interaction score [56]: 0.0594
interaction score [14]: 0.219

Binder: DEIAQLEQEIAELEQKIAELKWKNAQLKQ [4H48-bA]
interaction score [57]: 1.25
interaction score [58]: 1.09

Binder: DKIKQLKQKIQRLKQENQRLEWENQKLEQ [P4A-bP]
interaction score [62]: -0.489
interaction score [63]: -0.918
interaction score [64]: -0.773
interaction score [65]: -1.51
interaction score [61]: -1.09
interaction score [66]: -1.59
